Three substances from patent US20090148383A1 can be followed below.

Data set [1] addresses recombinant tick anticoagulant peptide (rTAP) (UniProt P17726).
The target in data set [2] is activated, fibrinogen-bound GP IIb/IIIa on activated mouse platelets (mouse) (UniProt Q9QUM0). The data set is described as follows: histology of the wire-injured mouse femoral artery after bead perfusion.
The target is the same in data set [3]. Put plainly: ex vivo 11.7 T MRI of the wire-injured mouse femoral artery after bead perfusion.

Sequence of activated, fibrinogen-bound GP IIb/IIIa on activated mouse platelets (mouse) (Q9QUM0 32-1033, chain 1 of 2): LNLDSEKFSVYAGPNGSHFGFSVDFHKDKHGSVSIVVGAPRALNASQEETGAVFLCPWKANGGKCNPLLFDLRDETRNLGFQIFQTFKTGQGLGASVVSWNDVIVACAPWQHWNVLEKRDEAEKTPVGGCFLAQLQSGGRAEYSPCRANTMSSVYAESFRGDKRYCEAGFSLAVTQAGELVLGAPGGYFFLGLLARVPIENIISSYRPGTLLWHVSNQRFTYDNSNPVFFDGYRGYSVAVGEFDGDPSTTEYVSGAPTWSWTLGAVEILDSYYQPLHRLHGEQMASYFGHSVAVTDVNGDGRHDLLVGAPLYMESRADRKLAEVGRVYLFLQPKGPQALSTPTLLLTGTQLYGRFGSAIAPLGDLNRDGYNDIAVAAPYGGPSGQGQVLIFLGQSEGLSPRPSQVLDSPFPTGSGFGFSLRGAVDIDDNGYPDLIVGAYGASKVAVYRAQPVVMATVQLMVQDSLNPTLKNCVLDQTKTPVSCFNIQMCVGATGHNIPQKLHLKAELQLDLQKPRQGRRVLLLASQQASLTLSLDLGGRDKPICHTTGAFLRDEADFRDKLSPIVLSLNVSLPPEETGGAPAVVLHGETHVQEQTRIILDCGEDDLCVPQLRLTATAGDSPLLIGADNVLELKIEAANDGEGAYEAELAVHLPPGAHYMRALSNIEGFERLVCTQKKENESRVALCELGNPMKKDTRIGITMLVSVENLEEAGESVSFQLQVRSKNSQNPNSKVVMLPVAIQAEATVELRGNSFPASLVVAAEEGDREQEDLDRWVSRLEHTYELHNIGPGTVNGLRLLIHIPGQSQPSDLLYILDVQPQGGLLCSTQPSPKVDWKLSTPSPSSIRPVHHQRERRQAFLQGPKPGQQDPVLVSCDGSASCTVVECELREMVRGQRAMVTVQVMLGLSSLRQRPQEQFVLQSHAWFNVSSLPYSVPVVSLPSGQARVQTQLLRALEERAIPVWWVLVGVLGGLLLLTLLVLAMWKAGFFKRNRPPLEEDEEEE
Sequence of activated, fibrinogen-bound GP IIb/IIIa on activated mouse platelets (mouse) (O54890 26-787, chain 2 of 2, further chain): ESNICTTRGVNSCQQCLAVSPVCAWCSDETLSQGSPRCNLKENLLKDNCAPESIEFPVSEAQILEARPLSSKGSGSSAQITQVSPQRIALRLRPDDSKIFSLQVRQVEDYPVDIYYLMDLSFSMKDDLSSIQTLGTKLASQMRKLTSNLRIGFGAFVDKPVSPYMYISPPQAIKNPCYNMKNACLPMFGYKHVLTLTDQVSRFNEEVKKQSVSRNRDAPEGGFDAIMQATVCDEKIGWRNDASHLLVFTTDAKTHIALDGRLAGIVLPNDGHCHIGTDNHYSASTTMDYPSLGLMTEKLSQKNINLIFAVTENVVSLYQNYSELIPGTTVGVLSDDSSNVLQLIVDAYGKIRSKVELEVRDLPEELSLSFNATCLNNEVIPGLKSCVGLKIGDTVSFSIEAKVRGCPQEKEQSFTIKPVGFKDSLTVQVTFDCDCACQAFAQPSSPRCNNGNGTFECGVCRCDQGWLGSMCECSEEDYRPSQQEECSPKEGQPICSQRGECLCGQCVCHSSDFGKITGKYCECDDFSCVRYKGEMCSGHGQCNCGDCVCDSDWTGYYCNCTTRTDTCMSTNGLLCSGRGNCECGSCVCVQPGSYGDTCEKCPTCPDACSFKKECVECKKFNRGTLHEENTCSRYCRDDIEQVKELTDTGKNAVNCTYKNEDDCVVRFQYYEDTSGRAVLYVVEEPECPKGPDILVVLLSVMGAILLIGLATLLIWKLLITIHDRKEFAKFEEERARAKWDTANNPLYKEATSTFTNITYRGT
Sequence of recombinant tick anticoagulant peptide (rTAP) (P17726 whole entry, the tested form may be a part): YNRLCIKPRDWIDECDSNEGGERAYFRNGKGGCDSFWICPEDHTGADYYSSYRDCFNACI

Regarding factor Xa, the “cleavage of chromogenic substrate (spectrozyme FXa #222) by factor Xa (500 pM), OD at 405 nm” value in data set [1] is “inhibition of factor Xa activity by rTAP, scFv anti-LIBS-TAP, and non-targeted mut-scFv-TAP, but not by scFv anti-LIBS”.

“irrelevant single-chain antibody conjugated to MPIO (Control-MPIO) (scFv)” returned an MPIO-binding (beads per section) (beads per section) in data set [2] of 0.5. For the same substance, the luminal areas of low signal suggesting MPIO-accumulation (ex vivo MRI) in data set [3] was determined as 6.2. For the substance “scFv anti-LIBS (anti-LIBS single-chain antibody)”, in data set [2], the MPIO-binding (beads per section) (beads per section) amounted to 9.98. This substance showed a luminal areas of low signal suggesting MPIO-accumulation (ex vivo MRI) in data set [3] of 23.7.
